The text below walks through data of article PMC5437297, “PTEN regulates glioblastoma oncogenesis through chromatin-associated complexes of DAXX and histone H3.3” (Nature Communications, 2017).

This assay deals with T1, human recombinant Flag-DAXX protein (human, UniProt Q9UER7 1-740).
T1 construct: DAXX (death-domain associated protein), human, recombinant; Commercial protein; no catalogue number is printed in the main text; source: bought: OriGene Technologies (recombinant protein)
Briefly: pull-down; 50 ng His-PTEN immobilised on 30 ul nickel beads, incubated with 200 ng Flag-DAXX for 2 h at 4 °C; bound proteins eluted and immunoblotted (the legend says IP anti-PTEN, IB anti-Flag). The note with it: both partners purified.

T1 sequence (Q9UER7 whole entry): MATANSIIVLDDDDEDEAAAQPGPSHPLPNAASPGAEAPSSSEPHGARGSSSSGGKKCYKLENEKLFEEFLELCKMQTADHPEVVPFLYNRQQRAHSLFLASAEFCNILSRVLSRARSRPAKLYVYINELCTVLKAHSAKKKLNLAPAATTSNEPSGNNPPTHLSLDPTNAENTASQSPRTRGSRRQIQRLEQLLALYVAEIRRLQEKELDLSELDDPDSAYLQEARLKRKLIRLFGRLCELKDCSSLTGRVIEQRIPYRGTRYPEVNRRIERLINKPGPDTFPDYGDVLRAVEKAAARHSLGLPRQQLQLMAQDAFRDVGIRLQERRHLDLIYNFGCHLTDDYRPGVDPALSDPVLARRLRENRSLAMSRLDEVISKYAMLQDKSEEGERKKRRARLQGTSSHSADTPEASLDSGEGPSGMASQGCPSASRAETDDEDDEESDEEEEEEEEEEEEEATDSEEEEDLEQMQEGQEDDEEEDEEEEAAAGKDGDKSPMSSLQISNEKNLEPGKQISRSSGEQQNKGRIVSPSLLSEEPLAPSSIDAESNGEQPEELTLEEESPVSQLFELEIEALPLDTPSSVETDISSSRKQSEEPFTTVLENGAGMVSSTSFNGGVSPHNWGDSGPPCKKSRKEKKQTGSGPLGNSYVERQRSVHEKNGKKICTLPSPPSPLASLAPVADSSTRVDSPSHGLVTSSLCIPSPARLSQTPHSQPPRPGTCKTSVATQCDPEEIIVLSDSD

B1: human recombinant His-PTEN (natural protein)
chain: not shown
notes: PTEN (phosphatase and tensin homolog), human, recombinant; Commercial protein; no catalogue number is printed in the main text (reagents are in the Supplementary Methods); source: bought: ENZO Life Science (recombinant protein)
Take B1: the binding result is “binds”.
